One may read the Kd as the equilibrium constant for the complex coming apart. Read a high Kd as lower affinity.

streptavidin, P22629, sequence (P22629 37-163 limits assumed): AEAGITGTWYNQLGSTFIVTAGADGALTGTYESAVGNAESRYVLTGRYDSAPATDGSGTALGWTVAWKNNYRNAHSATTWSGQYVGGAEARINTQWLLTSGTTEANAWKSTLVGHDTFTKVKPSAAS

This assay concerns the target streptavidin, P22629. The experiment in a line: SPR, BIAcore X100, streptavidin coupled to the chip, peptide in solution. A general note: In SPR one partner is held on a chip, and binding of the other changes the refractive index at the surface.
Turning to H-QNDHPQNGGQ-OH, the Kd worked out at 320 µM. In the case of NQPWQ (modifications not checked) [head-to-tail cyclic NQpWQ peptide] it was 61.3 µM. In the case of LYDHPQNGGQ (modifications not checked) it was 9.4 µM; in that of H-LYDHPQNGGQ-OH, 100 µM; in that of QNDHPQNGGQ (modifications not checked), 10.8 µM.

(Values after patent publication US20180045721A1.)
